These results are taken from paper PMC7299343, “Two forms of Opa1 cooperate to complete fusion of the mitochondrial inner-membrane” (eLife, 2020).

The chains are these.
B3: long form of human Opa1 (l-Opa1), wild type (natural protein, UniProt O60313-1 88-960, looked up)
chain: FWPARLATRLLKLRYLILGSAVGGGYTAKKTFDQWKDMIPDLSEYKWIVPDIVWEIDEYIDFEKIRKALPSSEDLVKLAPDFDKIVESLSLLKDFFTSGSPEETAFRATDRGSESDKHFRKVSDKEKIDQLQEELLHTQLKYQRILERLEKENKELRKLVLQKDDKGIHHRKLKKSLIDMYSEVLDVLSDYDASYNTQDHLPRVVVVGDQSAGKTSVLEMIAQARIFPRGSGEMMTRSPVKVTLSEGPHHVALFKDSSREFDLTKEEDLAALRHEIELRMRKNVKEGCTVSPETISLNVKGPGLQRMVLVDLPGVINTVTSGMAPDTKETIFSISKAYMQNPNAIILCIQDGSVDAERSIVTDLVSQMDPHGRRTIFVLTKVDLAEKNVASPSRIQQIIEGKLFPMKALGYFAVVTGKGNSSESIEAIREYEEEFFQNSKLLKTSMLKAHQVTTRNLSLAVSDCFWKMVRESVEQQADSFKATRFNLETEWKNNYPRLRELDRNELFEKAKNEILDEVISLSQVTPKHWEEILQQSLWERVSTHVIENIYLPAAQTMNSGTFNTTVDIKLKQWTDKQLPNKAVEVAWETLQEEFSRFMTEPKGKEHDDIFDKLKEAVKEESIKRHKWNDFAEDSLRVIQHNALEDRSISDKQQWDAAIYFMEEALQARLKDTENAIENMVGPDWKKRWLYWKNRTQEQCVHNETKNELEKMLKCNEEHPAYLASDEITTVRKNLESRGVEVDPSLIKDTWHQVYRRHFLKTALNHCNLCRRGFYYYQRHFVDSELECNDVVLFWRIQRMLAITANTLRQQLTNTEVRRLEKNVKEVLEDFAEDGEKKIKLLTGKRVQLAEDLKKVREIQEKLDAFIEALHQEK
notes: OPA1, human, long form, residues 88-960 of UniProt O60313-1 (isoform 1), codon optimized for Pichia pastoris; Construct: Twin-Strep-tag, HRV 3C site, (G4S)3 linker at the N-terminus; (G4S)3 linker, TEV site, deca-histidine tag at the C-terminus; also called WT l-Opa1; TwinStrep-lOPA1-H10

Data set [1] deals with the molecule itself. Description: native gel or EMSA; Blue native PAGE (BN-PAGE), 3-12% Bis-Tris gradient gels, sample buffer with 0.25% Coomassie G-250 and 1 mM DDM, cathode buffer with 1 mM DDM, 4 °C; mixtures of l-Opa1 and s-Opa1 incubated on ice for 10 min before loading.
Data set [2] concerns the target B3. The description is as above. Particulars: both partners purified.

B1: short form of human Opa1 (s-Opa1, S1 form), wild type (natural protein, UniProt O60313-1 195-960, looked up)
chain: ATDRGSESDKHFRKVSDKEKIDQLQEELLHTQLKYQRILERLEKENKELRKLVLQKDDKGIHHRKLKKSLIDMYSEVLDVLSDYDASYNTQDHLPRVVVVGDQSAGKTSVLEMIAQARIFPRGSGEMMTRSPVKVTLSEGPHHVALFKDSSREFDLTKEEDLAALRHEIELRMRKNVKEGCTVSPETISLNVKGPGLQRMVLVDLPGVINTVTSGMAPDTKETIFSISKAYMQNPNAIILCIQDGSVDAERSIVTDLVSQMDPHGRRTIFVLTKVDLAEKNVASPSRIQQIIEGKLFPMKALGYFAVVTGKGNSSESIEAIREYEEEFFQNSKLLKTSMLKAHQVTTRNLSLAVSDCFWKMVRESVEQQADSFKATRFNLETEWKNNYPRLRELDRNELFEKAKNEILDEVISLSQVTPKHWEEILQQSLWERVSTHVIENIYLPAAQTMNSGTFNTTVDIKLKQWTDKQLPNKAVEVAWETLQEEFSRFMTEPKGKEHDDIFDKLKEAVKEESIKRHKWNDFAEDSLRVIQHNALEDRSISDKQQWDAAIYFMEEALQARLKDTENAIENMVGPDWKKRWLYWKNRTQEQCVHNETKNELEKMLKCNEEHPAYLASDEITTVRKNLESRGVEVDPSLIKDTWHQVYRRHFLKTALNHCNLCRRGFYYYQRHFVDSELECNDVVLFWRIQRMLAITANTLRQQLTNTEVRRLEKNVKEVLEDFAEDGEKKIKLLTGKRVQLAEDLKKVREIQEKLDAFIEALHQEK
notes: OPA1, human, short form corresponding to the S1 form that results from Oma1 cleavage, residues 195-960 of UniProt O60313-1, codon optimized for Pichia pastoris; Construct: Twin-Strep-tag, HRV 3C site, (G4S)3 linker at the N-terminus; (G4S)3 linker, TEV site, deca-histidine tag at the C-terminus; His tag said to be cleaved with TEV in all the functional assays; also called WT s-Opa1; …
In the case of B1, in data set [1], the binding result is “binds”.

B2: G300E mutant of s-Opa1 (s1) (natural protein, human, UniProt O60313-1 195-960, looked up)
chain: ATDRGSESDKHFRKVSDKEKIDQLQEELLHTQLKYQRILERLEKENKELRKLVLQKDDKGIHHRKLKKSLIDMYSEVLDVLSDYDASYNTQDHLPRVVVVGDQSAEKTSVLEMIAQARIFPRGSGEMMTRSPVKVTLSEGPHHVALFKDSSREFDLTKEEDLAALRHEIELRMRKNVKEGCTVSPETISLNVKGPGLQRMVLVDLPGVINTVTSGMAPDTKETIFSISKAYMQNPNAIILCIQDGSVDAERSIVTDLVSQMDPHGRRTIFVLTKVDLAEKNVASPSRIQQIIEGKLFPMKALGYFAVVTGKGNSSESIEAIREYEEEFFQNSKLLKTSMLKAHQVTTRNLSLAVSDCFWKMVRESVEQQADSFKATRFNLETEWKNNYPRLRELDRNELFEKAKNEILDEVISLSQVTPKHWEEILQQSLWERVSTHVIENIYLPAAQTMNSGTFNTTVDIKLKQWTDKQLPNKAVEVAWETLQEEFSRFMTEPKGKEHDDIFDKLKEAVKEESIKRHKWNDFAEDSLRVIQHNALEDRSISDKQQWDAAIYFMEEALQARLKDTENAIENMVGPDWKKRWLYWKNRTQEQCVHNETKNELEKMLKCNEEHPAYLASDEITTVRKNLESRGVEVDPSLIKDTWHQVYRRHFLKTALNHCNLCRRGFYYYQRHFVDSELECNDVVLFWRIQRMLAITANTLRQQLTNTEVRRLEKNVKEVLEDFAEDGEKKIKLLTGKRVQLAEDLKKVREIQEKLDAFIEALHQEK
notes: OPA1, human, short form (S1), residues 195-960 of UniProt O60313-1, with G300E; same tags and linkers as m2; also called G300E s-Opa1; sOPA1 (G300E); source: Pichia pastoris SMD1163, purified
On to B2, for which the binding result in data set [2] is recorded as “binds”.
Consider B3, for which, in data set [1], the binding result is recorded as “binds”.
